In patent US20250327113A1 (ESPERANCE PHARMACEUTICALS, published 2025):

Molecular target: T1, human LHRH receptor (human, UniProt P30968 1-328)
T1 sequence: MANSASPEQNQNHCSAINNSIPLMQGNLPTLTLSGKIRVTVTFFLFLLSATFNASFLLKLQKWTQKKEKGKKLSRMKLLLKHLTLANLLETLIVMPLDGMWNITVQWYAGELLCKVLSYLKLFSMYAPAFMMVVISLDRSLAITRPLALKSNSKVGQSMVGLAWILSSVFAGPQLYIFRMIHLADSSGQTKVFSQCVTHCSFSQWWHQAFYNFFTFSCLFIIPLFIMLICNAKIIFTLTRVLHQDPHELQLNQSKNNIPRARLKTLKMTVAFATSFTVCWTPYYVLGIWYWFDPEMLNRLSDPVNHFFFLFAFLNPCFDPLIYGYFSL
Test: cell-based or functional assay

KFAKFAKKFAKFAKKFAKQHWSYGLRPG [EP-100 (KFAKFAKKFAKFAKKFAKQHWSYGLRPG)]
cytotoxicity IC50, MTT assay, 24 h, AN3-CA human endometrial cancer cells: 3.3 µM | cytotoxicity IC50, MTT assay, 24 h, LNCaP prostate cancer cells: 1.5 µM | cytotoxicity IC50, MTT assay, 24 h, MDA-MB-231 human breast cancer cells: 5.5 µM | cytotoxicity IC50, MTT assay, 24 h, MDA-MB-435S breast cancer cells: 0.8 µM | cytotoxicity IC50, MTT assay, 24 h, OVCAR-3 ovarian cancer cells: 3 µM | cytotoxicity IC50, MTT assay, 24 h, PC-3 prostate cancer cells: 5.5 µM
